Reference: IntAct's records for PubMed 18826409

B1: Regulator of sigma D (Escherichia coli (strain K12)), P0AFX4 (parent)
chain: MLNQLDNLTERVRGSNKLVDRWLHVRKHLLVAYYNLVGIKPGKESYMRLNEKALDDFCQSLVDYLSAGHFSIYERILHKLEGNGQLARAAKIWPQLEANTQQIMDYYDSSLETAIDHDNYLEFQQVLSDIGEALEARFVLEDKLILLVLDAARVKHPA

Variants of: B1
Conditions: with rpod_ecoli rpoD

| effect of a mutation on the interaction | Variant |
| --- | --- |
| decreasing interaction strength | MLNQLDNLTERVRGSNKLVDRWLHVRKHLLVAYFNLVGIKPGKESYMRLNEKALDDFCQSLVDYLSAGHFSIYERILHKLEGNGQLARAAKIWPQLEANTQQIMDYYDSSLETAIDHDNYLEFQQVLSDIGEALEARFVLEDKLILLVLDAARVKHPA |
| increasing interaction strength | MLNQLDNLTERVRESNKLVDRWLHVRKHLLVAYYNLVGIKPGKESYMRLNEKALDDFCQSLVDYLSAGHFSIYERILHKLEGNGQLARAAKIWPQLEANTQQIMDYYDSSLETAIDHDNYLEFQQVLSDIGEALEARFVLEDKLILLVLDAARVKHPA |
| increasing interaction strength | MLNQLDNLTERVRESNKLVDRWLHVRKHLLVAYFNLVGIKPGKESYMRLNEKALDDFCQSLVDYLSAGHFSIYERILHKLEGNGQLARAAKIWPQLEANTQQIMDYYDSSLETAIDHDNYLEFQQVLSDIGEALEARFVLEDKLILLVLDAARVKHPA |

Variants of: B1
Conditions: with rpod_ecoli rpoD
Remark: another data set of the same source

| effect of a mutation on the interaction | Variant |
| --- | --- |
| increasing interaction strength | MLNQLDNLTERVRGSNKLVDRWLHVRKHLLVAYFNLVGIKPGKESYMRLNEKALDDFCQSLVDYLSAGHFSIYERILHKLEGNGQLARAAKIWPQLEANTQQIMDYYDSSLETAIDHDNYLEFQQVLSDIGEALEARFVLEDKLILLVLDAARVKHPA |
| disrupting interaction strength | MLNQLDNLTERVRGSNKLVDRWLHVRKHLLVAYYNLVGIKPGKESYMRLNEKALDDFCQSLVDYLSAGHFSIYERILHKLEGNGQLARAAKIWPQLEANTQQIMDYYDSSLETAIDHDNYLEFQQVLSDIGEALEARFVLENKLILLVLDAARVKHPA |
